Test results: patent US20230322924A1 (Janssen / Centocor, published 2023)

Columns and labels:
[1] = molecular target: T1, human CD33, full length, on cells (human, UniProt P20138 18-364); assay: flow cytometry on CD33 expressing HEK293F cells
T1 construct: SH2 and OCIAML3 carry SNP rs12459419 (hetero-/homozygous), which leads to a form without the V domain; also called Human CD33 (HEK293F transfectants); CD33 on AML cell lines KG1, SH2, OCIAML3
Method: OMNIRat antibodies identified via immunization, v-region cloned and subsequently expressed and purified were characterized further for binding to CD33 expressing cells and binding to recombinant antigens. The purified antibodies were assessed for binding to stably transfected HEK293F cells expressing human CD33 or cyno CD33 (generation described above) along with the parental HEK293F as negative control. Cells were harvested from tissue culture flasks using non-enzymatic dissociation buffer (Thermo Scientific). The flasks were rinsed twice with PBS and dissociation buffer was added to the flask, and the flask was incubated for 10 minutes at 37° C. until the cells became non-adherent. The cells were centrifuged at 300 g for 5 minutes and resuspended at 1.0×10⁶ cells/ml in staining buffer (Becton Dickinson; Franklin Lakes, NJ). 50,000 cells/well of each cell type was plated in 50 μl of staining buffer in round bottom plates (Becton Dickinson). […] 30 μl running buffer containing Sytox Green live/dead dye (ThermoFisher) was added to all wells with cells and the plates were read on an iQue IntelliCyt flow cytometer. […] Antibody binding was assessed by the mean fluorescence intensity in the AF647 channel.

[2] = molecular target: T2, human PSMA on cells (LNCaP) (human, UniProt Q04609 1-750); assay: flow cytometry on LNCaP cells
T2 construct: whole, on cells; also called LNCaP cells
T2 sequence (Q04609 whole entry): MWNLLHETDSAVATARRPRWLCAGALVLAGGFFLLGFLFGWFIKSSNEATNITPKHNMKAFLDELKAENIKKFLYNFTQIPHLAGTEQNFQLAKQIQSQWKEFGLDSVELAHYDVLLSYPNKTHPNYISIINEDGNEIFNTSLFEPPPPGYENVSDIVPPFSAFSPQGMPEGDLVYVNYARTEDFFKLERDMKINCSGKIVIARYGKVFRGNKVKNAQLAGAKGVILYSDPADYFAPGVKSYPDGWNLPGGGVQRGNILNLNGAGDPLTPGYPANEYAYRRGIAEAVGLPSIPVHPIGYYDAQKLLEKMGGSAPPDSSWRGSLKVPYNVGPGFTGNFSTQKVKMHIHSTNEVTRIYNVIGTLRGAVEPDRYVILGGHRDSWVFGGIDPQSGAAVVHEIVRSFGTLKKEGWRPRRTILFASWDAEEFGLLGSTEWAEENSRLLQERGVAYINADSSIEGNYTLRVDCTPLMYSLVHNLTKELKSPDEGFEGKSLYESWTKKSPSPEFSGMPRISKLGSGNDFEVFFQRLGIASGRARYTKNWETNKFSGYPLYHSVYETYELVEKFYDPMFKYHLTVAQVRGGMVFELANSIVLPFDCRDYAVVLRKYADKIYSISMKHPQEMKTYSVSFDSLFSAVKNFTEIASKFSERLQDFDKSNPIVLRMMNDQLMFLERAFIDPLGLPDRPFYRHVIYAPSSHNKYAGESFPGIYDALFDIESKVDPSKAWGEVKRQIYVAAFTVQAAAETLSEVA
Method: PSMA×CD3 bispecific antibodies were tested for binding to PSMA positive cell line, LNCAP, to PSMA negative cell line, PC3. To assess the binding capabilities of the PSMA bispecific antibodies, the cell-binding assay was utilized (described previously). Bispecific antibodies were normalized for protein concentration and then incubated with the same number of cells expressing either human or cyno PSMA. The MFI at each concentration was collected by flow cytometry and plotted as a function of concentration. Data was transformed via log 10 and then plotted. Nonlinear regression of binding curves was done to determine EC50s.

T1 sequence (P20138 18-364 limits assumed): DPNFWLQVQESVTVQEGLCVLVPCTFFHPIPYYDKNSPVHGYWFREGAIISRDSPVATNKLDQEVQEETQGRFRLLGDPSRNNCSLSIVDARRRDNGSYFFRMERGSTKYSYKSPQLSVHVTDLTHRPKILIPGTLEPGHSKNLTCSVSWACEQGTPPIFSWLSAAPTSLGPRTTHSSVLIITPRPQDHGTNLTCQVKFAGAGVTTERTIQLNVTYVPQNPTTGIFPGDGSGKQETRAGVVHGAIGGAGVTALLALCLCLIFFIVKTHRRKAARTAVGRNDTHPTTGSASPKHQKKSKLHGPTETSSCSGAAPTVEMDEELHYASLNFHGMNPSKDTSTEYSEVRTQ

| binding result [2] | Binder | binding result [1] |
| --- | --- | --- |
| – | C33B909 (antibody, V domains shown, OmniMouse clone; also called C33H249/C33L115) VH: EVQLVESGGGLVQPGRSLRLSCVASGFTFDDYAIHWVRQAPGKGLEWVSGLSWNGGNIGYADSVKGRFTISRDNAKNSLYLQMNSLKTEDTAFYYCTKDTPYGDYFDYWGQGTLVTVSS VL: DIQMTQSPSSVWASVGDRVTITCRASQGISSWLAWYQQQPGKAPNLLIYRSSSLQSGVPSRFSGSGSGTDFTLTISSLQPEDFATYYCQQDNSFPYTFGQGTKLEIK | no binding (tested: 60 nM highest tested) |
| binds | PS3B90 (bispecific antibody, human IgG4 S228P, kappa, lambda, F234A L235A, IgG4 PAA; also called PSMB365 x CD3B376) heavy 1: not shown light 1: not shown heavy 2: QVQLQQSGPRLVRPSQTLSLTCAISGDSVFNNNAAWSWIRQSPSRGLEWLGRTYYRSKWLYDYAVSVKSRITVNPDTSRNQFTLQLNSVTPEDTALYYCARGYSSSFDYWGQGTLVTVSSASTKGPSVFPLAPCSRSTSESTAALGCLVKDYFPEPVTVSWNSGALTSGVHTFPAVLQSSGLYSLSSVVTVPSSSLGTKTYTCNVDHKPSNTKVDKRVESKYGPPCPPCPAPEAAGGPSVFLFPPKPKDTLMISRTPEVTCVVVDVSQEDPEVQFNWYVDGVEVHNAKTKPREEQFNSTYRVVSVLTVLHQDWLNGKEYKCKVSNKGLPSSIEKTISKAKGQPREPQVYTLPPSQEEMTKNQVSLTCLVKGFYPSDIAVEWESNGQPENNYKTTPPVLDSDGSFLLYSKLTVDKSRWQEGNVFSCSVMHEALHNHYTQKSLSLSLGK light 2: QSALTQPASVSGSPGQSITISCTGTSSNIGTYKFVSWYQQHPDKAPKVLLYEVSKRPSGVSSRFSGSKSGNTASLTISGLQAEDQADYHCVSYAGSGTLLFGGGTKLTVLGQPKAAPSVTLFPPSSEELQANKATLVCLISDFYPGAVTVAWKADSSPVKAGVETTTPSKQSNNKYAASSYLSLTPEQWKSHRSYSCQVTHEGSTVEKTVAPTECS | – |
